The supplement of paper PMC10567573

B1: KLHL20 (parent)
chain: YQDMIYAVGGRDDTTELSSAERYN

Variants of: B1
Experiment: protein stability index of a GFP-peptide fusion (GPS, HEK-293T) (PSI 1-6); higher = more stable
Conditions: c terminus: a fixed tail appended
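Further: lentivirally expressed fusions sorted by FACS into six bins by GFP to DsRed ratio, PSI derived from sequencing read proportions per bin multiplied by bin number.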

Compared with YQDMIYAVGGRDDTNELSSAERYN [T15N], YQDMIYAVGGRDDTTELSSANRYN [E21N] is lower in protein stability index: 2.33 for the first, 1.89 for the second.

Compared with YQDMIYAVGGRDDTTEFSSAERYN [L17F], YQDMIYAVGGRDDTTELSSAERCN [Y23C] is higher in protein stability index: 2.14 for the first, 2.32 for the second.

Going from YQDMIFAVGGRDDTTELSSAERYN [Y6F] to YQDMIYAVGGRDKTTELSSAERYN [D13K], the protein stability index rises from 2.14 to 2.23.

Compared with YQDMIYAVGGRDDTEELSSAERYN [T15E], YQDMIYAVGNRDDTTELSSAERYN [G10N] is higher in protein stability index: 2.44 for the first, 2.45 for the second.

First: YQDMIYAVGGRDDTCELSSAERYN [T15C]
Second: YQDMIYAVGGRDDTTELSSAERPN [Y23P]
The protein stability index of the first is lower: 2.49 for the first, 2.72 for the second.

First: YQDMIYAVGGRDDTTELSSAEVYN [R22V]
Second: YQPMIYAVGGRDDTTELSSAERYN [D3P]
The protein stability index of the first is lower: 2.52 for the first, 3.4 for the second.

Going from YPDMIYAVGGRDDTTELSSAERYN [Q2P] to YQDMIYAVGKRDDTTELSSAERYN [G10K], the protein stability index falls from 3.58 to 1.83.

First: YQDMIYAVGGRDDTTELSSALRYN [E21L]
Second: YQDMIYAVGGRMDTTELSSAERYN [D12M]
The protein stability index of the first is higher: 1.95 for the first, 1.76 for the second.

Going from YQDMIYAVGGRDDTTELSDAERYN [S19D] to YQDMIYAVGGRDDTYELSSAERYN [T15Y], the protein stability index falls from 2.43 to 1.8.

First: YQDMIYAVSGRDDTTELSSAERYN [G9S]
Second: YQDMIYAVGGRDDTTEVSSAERYN [L17V]
The protein stability index of the first is lower: 1.85 for the first, 2 for the second.

Compared with YQDMIYAVGGRDDDTELSSAERYN [T14D], YQDMIYAVGGRDDTFELSSAERYN [T15F] is lower in protein stability index: 2.79 for the first, 2.38 for the second.

Going from YQDMIYAVWGRDDTTELSSAERYN [G9W] to YQDMIYAVGGRDDTTELSSAERYE [N24E], the protein stability index rises from 1.92 to 2.66.

Compared with YQDMIYAVGGRDSTTELSSAERYN [D13S], YKDMIYAVGGRDDTTELSSAERYN [Q2K] is higher in protein stability index: 2.18 for the first, 4.2 for the second.

First: WQDMIYAVGGRDDTTELSSAERYN [Y1W]
Second: YQDMIYAVGGRDDGTELSSAERYN [T14G]
The protein stability index of the first is higher: 2.85 for the first, 2.47 for the second.

Compared with YQDMIYAVGGRDDTTELSTAERYN [S19T], YQDMIYAVGGRDDTDELSSAERYN [T15D] is lower in protein stability index: 2.54 for the first, 2.49 for the second.

Going from YQDMIYAVGGRDDTTELSRAERYN [S19R] to YQDMRYAVGGRDDTTELSSAERYN [I5R], the protein stability index rises from 2.53 to 2.71.

Compared with YQDMIYAVGGRDDTTELSSAEFYN [R22F], YQDMIMAVGGRDDTTELSSAERYN [Y6M] is higher in protein stability index: 2.48 for the first, 2.98 for the second.

Compared with YQDMIYAVGGRDDTTELSSAYRYN [E21Y], YQDMIYAVGGRDDTTELSHAERYN [S19H] is higher in protein stability index: 1.69 for the first, 2.33 for the second.

Going from YQDMIYAVGGRDDKTELSSAERYN [T14K] to YQDMIYAVGGRDDTTEPSSAERYN [L17P], the protein stability index rises from 2.17 to 2.49.

First: YQDMIYAVGGRDDTTELSSAECYN [R22C]
Second: YYDMIYAVGGRDDTTELSSAERYN [Q2Y]
The protein stability index of the first is lower: 2.52 for the first, 3.17 for the second.

First: YQDPIYAVGGRDDTTELSSAERYN [M4P]
Second: NQDMIYAVGGRDDTTELSSAERYN [Y1N]
The protein stability index of the first is lower: 2.6 for the first, 4.96 for the second.

First: YQDMIYAVGGRDDTTELSSYERYN [A20Y]
Second: YQDMIYAVGGADDTTELSSAERYN [R11A]
The protein stability index of the first is lower: 1.78 for the first, 2.54 for the second.

Compared with YQDMIYAGGGRDDTTELSSAERYN [V8G], YQDMIYAVGGRDDTTELSSAERIN [Y23I] is lower in protein stability index: 2.81 for the first, 1.93 for the second.

Compared with YQDMIYAVGVRDDTTELSSAERYN [G10V], VQDMIYAVGGRDDTTELSSAERYN [Y1V] is higher in protein stability index: 2.05 for the first, 4.5 for the second.

Going from YQDMIYAVGGRDDTTELSSAERYA [N24A] to YQDMIYAVGGPDDTTELSSAERYN [R11P], the protein stability index rises from 1.75 to 2.57.

Compared with YQDKIYAVGGRDDTTELSSAERYN [M4K], YQDMIYAVGGRDDTTELSSAERYM [N24M] is lower in protein stability index: 2.65 for the first, 2.08 for the second.

First: YQDMIYGVGGRDDTTELSSAERYN [A7G]
Second: YQDMIYAVGGRDPTTELSSAERYN [D13P]
The protein stability index of the first is higher: 3.01 for the first, 2.03 for the second.

Compared with YQDMIYAVGGRDYTTELSSAERYN [D13Y], YQRMIYAVGGRDDTTELSSAERYN [D3R] is higher in protein stability index: 1.97 for the first, 2.83 for the second.

Going from YQDMIYAVGGRDDTTELMSAERYN [S18M] to YQDMIYAVGGRDDTTELSSAERYT [N24T], the protein stability index falls from 2.07 to 1.85.

Going from YQDMIYVVGGRDDTTELSSAERYN [A7V] to YQDMIYAVGGRLDTTELSSAERYN [D12L], the protein stability index rises from 2.16 to 2.21.

Compared with YQDMIKAVGGRDDTTELSSAERYN [Y6K], YQDMIYAFGGRDDTTELSSAERYN [V8F] is lower in protein stability index: 3.43 for the first, 1.87 for the second.

Going from YQDMIYAVGGRDDTTELSSAERVN [Y23V] to YQDMIYATGGRDDTTELSSAERYN [V8T], the protein stability index falls from 2.93 to 2.41.

Going from YQDMIYAVGGRDDTTNLSSAERYN [E16N] to YQDMIYAVGGRDDTTELSSAERGN [Y23G], the protein stability index falls from 2.38 to 2.18.

Going from YQDMIYAVGGRDMTTELSSAERYN [D13M] to YQDMIYAVHGRDDTTELSSAERYN [G9H], the protein stability index rises from 1.34 to 1.94.

Compared with YQDMIYAVAGRDDTTELSSAERYN [G9A], YQDMIYAVGGRDDTTERSSAERYN [L17R] is higher in protein stability index: 1.94 for the first, 2.19 for the second.

Going from YQDMIYAVLGRDDTTELSSAERYN [G9L] to YQDMIAAVGGRDDTTELSSAERYN [Y6A], the protein stability index rises from 2.01 to 3.85.

Compared with YQDMIYAVGGRDDTSELSSAERYN [T15S], YQDMIYAVGERDDTTELSSAERYN [G10E] is higher in protein stability index: 2.46 for the first, 2.92 for the second.

Compared with YQDMIYAVGGWDDTTELSSAERYN [R11W], YQDLIYAVGGRDDTTELSSAERYN [M4L] is higher in protein stability index: 2.08 for the first, 2.31 for the second.

Going from YQDMYYAVGGRDDTTELSSAERYN [I5Y] to YQDMIYMVGGRDDTTELSSAERYN [A7M], the protein stability index falls from 2.21 to 1.96.

First: YSDMIYAVGGRDDTTELSSAERYN [Q2S]
Second: YQDMIYAVGGRDDTTELSSAPRYN [E21P]
The protein stability index of the first is higher: 3.61 for the first, 2.55 for the second.

Compared with YQDMIYAVGMRDDTTELSSAERYN [G10M], YQDMIYAVGWRDDTTELSSAERYN [G10W] is higher in protein stability index: 1.87 for the first, 1.91 for the second.

Compared with YQDMIYAVGGDDDTTELSSAERYN [R11D], YQDMIYAVGGRDDTTELSSHERYN [A20H] is lower in protein stability index: 3.01 for the first, 2.74 for the second.

First: YQDMIYAVGGRDDTTELSSAERYF [N24F]
Second: YQDMIYAVGGRDDTTELSSQERYN [A20Q]
The protein stability index of the first is lower: 2.41 for the first, 2.91 for the second.

First: YQDMIYAVGGRDDTTELWSAERYN [S18W]
Second: YQDMAYAVGGRDDTTELSSAERYN [I5A]
The protein stability index of the first is lower: 2.27 for the first, 2.28 for the second.

Going from YQDMIYAVGFRDDTTELSSAERYN [G10F] to YQDMIYAVGGRDDTMELSSAERYN [T15M], the protein stability index falls from 2.27 to 1.92.

YQDMIYIVGGRDDTTELSSAERYN [A7I] and YQDMIYAVGYRDDTTELSSAERYN [G10Y] are the same in protein stability index: 1.8 for the first, 1.8 for the second.

Compared with YQDMIYAVGGRDDTTELISAERYN [S18I], QQDMIYAVGGRDDTTELSSAERYN [Y1Q] is higher in protein stability index: 2.12 for the first, 4.75 for the second.
